Results reported in the supplement of paper PMC7877785.
± gives the uncertainty stated by the source.

Test: self-splicing fitness, log relative to wild type (ln ratio); higher = more splicing; Tetrahymena group I intron in knt gene, E. coli kanamycin selection, DiMSum; sequences stand for … in CUCUCU…GGAGGGAAAAGUUAUCAGGCAUGCACCUGGUAGCUAGUCUUUAAACCAAUAGAUUGCAUCGGUUUAAAAGGCAAGACCGUCAAAUUGCGGGAAAGGGGUCAACAGCCGUUCAGUACCAAGUCUCAGGGGAAACUUUGAGAUGGCCUUGCAAAGGGUAUGGUAAUAAGCUGACGGACAUGGUCCUAACCACGCAGCCAAGUCCUAAGUCAACAGAUCUUCUGUUGAUAUGGAUGCAGUUCACAGACUAAAUGUCGGUCGGGGAAGAUGUAUUCUUCUCAUAAGAUAUAGUCGGACCUCUCCUUAAUGGGAGCUAGCGGAUGAAGUGAUGCAACACUGGAGCCGCUGGGAACUAAUUUGUAUGCGAAAGUAUAUUGAUUAGUUUUGGAGUACUCGUGGUCG
Procedure, shortened: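 Colonies from six replicate transformations of E. coli BL21(DE3) were pooled and amplicon-sequenced on an Illumina HiSeq 2500. The library placed an intron with all eight P1ex-region nucleotides randomised inside the knt kanamycin-resistance gene on pET-22b(+), and cells grew overnight at 37°C or 30°C on LB agar with or without 25 μg/mL kanamycin (plus 100 μg/mL carbenicillin, 50 μM IPTG, 0.2% rhamnose). Fitness is the DiMSum error-weighted combination of wild-type-normalised replicate fold changes, kanamycin versus none.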

Row | Sequence | self-splicing fitness (ln) (30 °C) | self-splicing fitness (ln) (37 °C)
1 | CGACAGCAAUAUUACGAUCA | -0.455 ± 0.07 | 0.458 ± 0.096
2 | UUUGAGCAAUAUUACGCGCA | – | -1.65 ± 0.48
3 | GCGAAGCAAUAUUACGUGGG | -3.87 ± 0.24 | -2.67 ± 0.26
4 | AUUUAGCAAUAUUACGCUUU | -2.7 ± 0.16 | -1.2 ± 0.11
5 | GGGCAGCAAUAUUACGAAGA | -2.31 ± 0.21 | -0.958 ± 0.16
6 | GGACAGCAAUAUUACGCGCC | -2.93 ± 0.2 | –
7 | AGCCAGCAAUAUUACGGGAG | -2.56 ± 0.11 | -2.17 ± 0.14
8 | AUGUAGCAAUAUUACGGGUA | -2.63 ± 0.24 | -0.0625 ± 0.14
9 | CUCAAGCAAUAUUACGCAGC | -4.03 ± 0.43 | -1.9 ± 0.44
10 | CACUAGCAAUAUUACGGGAA | -2.2 ± 0.18 | -2.29 ± 0.17
11 | UGCGAGCAAUAUUACGUUCU | -1.68 ± 0.12 | -2.05 ± 0.14
12 | AUUUAGCAAUAUUACGCUCC | -1.4 ± 0.47 | –
13 | UAUCAGCAAUAUUACGGACA | 0.27 ± 0.15 | -0.681 ± 0.17
14 | AUUCAGCAAUAUUACGUGUU | -2.68 ± 0.1 | -1.39 ± 0.089
15 | GAUCAGCAAUAUUACGAGAC | -3.07 ± 0.44 | -1.86 ± 0.13
16 | UAUUAGCAAUAUUACGUACG | -0.0813 ± 0.071 | -0.262 ± 0.09
17 | UCCAAGCAAUAUUACGAAAA | -2.15 ± 0.18 | -0.93 ± 0.12
18 | AACAAGCAAUAUUACGUGAA | -2.08 ± 0.082 | -0.353 ± 0.081
19 | AAGUAGCAAUAUUACGUAUU | -1.97 ± 0.11 | -1.07 ± 0.14
20 | CAGCAGCAAUAUUACGAGUU | -3.95 ± 0.2 | -2.15 ± 0.13
21 | UUAUAGCAAUAUUACGGAGA | -2.04 ± 0.27 | -1.89 ± 0.32
22 | AGGAAGCAAUAUUACGCGCU | -1.01 ± 0.13 | -0.788 ± 0.17
23 | UAAGAGCAAUAUUACGCCUA | -2.03 ± 0.15 | -1.41 ± 0.12
24 | AGACAGCAAUAUUACGACAA | -1.34 ± 0.12 | -1.02 ± 0.12
25 | CCAAAGCAAUAUUACGGUCG | -0.306 ± 0.066 | -0.674 ± 0.077
26 | CGAGAGCAAUAUUACGAGUU | -3.56 ± 0.34 | -2.18 ± 0.34
27 | UAUAAGCAAUAUUACGUAGU | -3.65 ± 0.25 | -2.07 ± 0.25

Row | Sequence | self-splicing fitness (ln) (30 °C) | self-splicing fitness (ln) (37 °C)
28 | UGACAGCAAUAUUACGCCGU | -2.54 ± 0.14 | -1.85 ± 0.15
29 | ACGUAGCAAUAUUACGUGCG | -2.19 ± 0.1 | -1.17 ± 0.11
30 | ACGGAGCAAUAUUACGGACG | -1.96 ± 0.19 | -1.17 ± 0.22
31 | UUUUAGCAAUAUUACGGAUG | -1.12 ± 0.22 | 0.2 ± 0.15
32 | AAAAAGCAAUAUUACGCAGU | -1.99 ± 0.15 | -2.19 ± 0.2
33 | CAUGAGCAAUAUUACGUUAC | -3.24 ± 0.15 | -3.39 ± 0.2
34 | AGACAGCAAUAUUACGCGGU | -3.61 ± 0.21 | -2.4 ± 0.22
35 | UCAUAGCAAUAUUACGCGAC | – | -1.46 ± 0.46
36 | ACACAGCAAUAUUACGUGAU | -2.14 ± 0.062 | -1.34 ± 0.086
37 | CAGUAGCAAUAUUACGAGUU | -3.52 ± 0.18 | -2.06 ± 0.15
38 | ACACAGCAAUAUUACGGAAC | -4.07 ± 0.17 | -2.49 ± 0.14
39 | GUAGAGCAAUAUUACGGAAA | -2.18 ± 0.28 | -2.18 ± 0.22
40 | GUGUAGCAAUAUUACGCACU | -2.59 ± 0.41 | -2.13 ± 0.33
41 | GGCAAGCAAUAUUACGCAAC | -2.24 ± 0.12 | -0.823 ± 0.1
42 | AAUUAGCAAUAUUACGCCGA | -1.34 ± 0.26 | -0.981 ± 0.21
43 | ACGGAGCAAUAUUACGAUAG | -3.57 ± 0.29 | -3.09 ± 0.34
44 | GACGAGCAAUAUUACGAGGG | -3.12 ± 0.25 | -2.97 ± 0.35
45 | CACAAGCAAUAUUACGUGGA | -2.95 ± 0.11 | -2.81 ± 0.13
46 | GAUUAGCAAUAUUACGCGUA | -1.01 ± 0.1 | -0.855 ± 0.091
47 | GCCAAGCAAUAUUACGGGAU | -0.936 ± 0.075 | -0.693 ± 0.099
48 | AAAUAGCAAUAUUACGGAGU | -3.7 ± 0.2 | -2.61 ± 0.15
49 | GUAUAGCAAUAUUACGCCUG | -2.67 ± 0.11 | -0.647 ± 0.1
50 | UGGAAGCAAUAUUACGGUUU | -4.66 ± 0.34 | -2.59 ± 0.21
51 | AAGGAGCAAUAUUACGCAGA | – | -2.56 ± 0.45
52 | AGAGAGCAAUAUUACGUUUU | -3.68 ± 0.35 | –
53 | CUUCAGCAAUAUUACGGAAC | -2.45 ± 0.16 | -2.12 ± 0.33
54 | CACGAGCAAUAUUACGGACA | -3.03 ± 0.22 | -2.9 ± 0.22

Row | Sequence | self-splicing fitness (ln) (30 °C) | self-splicing fitness (ln) (37 °C)
55 | CAAAAGCAAUAUUACGCGAC | -3.52 ± 0.34 | -4.08 ± 0.42
56 | GACGAGCAAUAUUACGAGCG | -1.88 ± 0.23 | –
57 | GGUAAGCAAUAUUACGACGU | 0.151 ± 0.1 | 0.677 ± 0.13
58 | CGGGAGCAAUAUUACGUGGG | -2.97 ± 0.35 | –
59 | UACAAGCAAUAUUACGUGCA | -0.352 ± 0.083 | -0.366 ± 0.1
60 | GUACAGCAAUAUUACGCACG | -2.42 ± 0.28 | -0.89 ± 0.19
61 | UUACAGCAAUAUUACGUAGC | -3.65 ± 0.3 | -2.92 ± 0.27
62 | UACGAGCAAUAUUACGGUUC | -4.18 ± 0.19 | -2.5 ± 0.15
63 | UUUGAGCAAUAUUACGGUAU | -4.23 ± 0.36 | -2.73 ± 0.38
64 | AGGCAGCAAUAUUACGUCGU | -0.986 ± 0.058 | -0.962 ± 0.088
65 | GGAAAGCAAUAUUACGACAC | -0.204 ± 0.15 | -0.206 ± 0.2
66 | CACUAGCAAUAUUACGCCGG | -0.975 ± 0.073 | -0.471 ± 0.1
67 | UAAAAGCAAUAUUACGUCGU | -3.29 ± 0.13 | -2.17 ± 0.11
68 | CCGUAGCAAUAUUACGCGCA | -3.09 ± 0.3 | -1.69 ± 0.4
69 | GGUAAGCAAUAUUACGAGCC | – | -2.76 ± 0.34
70 | AGCAAGCAAUAUUACGCAGU | -3.01 ± 0.18 | -1.28 ± 0.14
71 | GGGUAGCAAUAUUACGCCUA | 0.113 ± 0.12 | -0.00829 ± 0.14
72 | ACGCAGCAAUAUUACGGCGG | -2.14 ± 0.074 | -1.91 ± 0.14
73 | CAAAAGCAAUAUUACGGAGG | -0.939 ± 0.096 | -0.844 ± 0.13
74 | CAUUAGCAAUAUUACGGAGA | -3.12 ± 0.41 | -2.39 ± 0.3
75 | GAUAAGCAAUAUUACGCGAC | -1.41 ± 0.14 | -1.54 ± 0.23
76 | GAAGAGCAAUAUUACGGCGG | -3.45 ± 0.2 | -2.19 ± 0.27
77 | UACUAGCAAUAUUACGGCAU | -1.36 ± 0.095 | -1.28 ± 0.099
78 | AAGCAGCAAUAUUACGCCGA | -1.64 ± 0.3 | -1.61 ± 0.26
79 | ACUGAGCAAUAUUACGAGUU | -2.88 ± 0.17 | -2.91 ± 0.28
